The Immune Epitope Database (IEDB)

Key:
HLA-A*02:02 = test: IEDB peptide-MHC binding, purified MHC/competitive/radioactivity; filed as Kd, often an IC50 or EC50 that approximates it; ≥ and ≤ were set here for values at or beyond the usual limits of such assays
HLA-A*02:03 = test: as above
HLA-B*08:01 = test: as above
HLA-A*02:06 = test: as above
HLA-A*24:02 = test: as above
HLA-A*23:01 = test: as above
HLA-A*30:02 = test: as above
HLA-A*26:01 = test: as above
HLA-A*29:02 = test: as above
HLA-A*01:01 = test: as above
HLA-A*03:01 = test: as above
HLA-A*11:01 = test: as above
HLA-A*68:01 = test: as above
HLA-A*31:01 = test: as above
HLA-A*33:01 = test: as above
HLA-B*15:01 = test: as above; settings: source organism: Vaccinia virus WR
HLA-A*02:01 = test: IEDB peptide-MHC binding, purified MHC/competitive/fluorescence; filed as Kd, often an IC50 or EC50 that approximates it; ≥ and ≤ were set here for values at or beyond the usual limits of such assays; settings: source organism: Variola virus
HLA-A*24:03 = test: IEDB peptide-MHC binding, purified MHC/direct/fluorescence; filed as Kd, often an IC50 or EC50 that approximates it; ≥ and ≤ were set here for values at or beyond the usual limits of such assays; settings: source organism: Mammarenavirus lassaense
[1] = source organism: Vaccinia virus WR
[2] = source organism: SARS coronavirus Tor2
[3] = source organism: Influenza A virus (A/Ann Arbor/6/1960(H2N2))
[4] = source organism: Mammarenavirus guanaritoense
[5] = source organism: Triticum aestivum

Question: How did the Kd (HLA-A*02:02; [1]) turn out when NLRCHSAHV was run?
Answer: 384 nM

Question: What about the Kd (HLA-A*02:03; [1]) of the same sequence?
Answer: 11 nM

Question: What about the Kd (HLA-B*08:01; [1]) of the same sequence?
Answer: 1.24 nM

Question: What about the Kd (HLA-A*02:06; [1]) of the same sequence?
Answer: 8030 nM

Question: How did the Kd (HLA-A*02:02; [2]) turn out when NMLRIMASL was run?
Answer: 3.4 nM

Question: What about the Kd (HLA-A*24:02; [2]) of the same sequence?
Answer: ≥ 32200 nM

Question: And the Kd (HLA-A*02:03; [2])?
Answer: 37.5 nM

Question: And the Kd (HLA-A*23:01; [2])?
Answer: 10900 nM

Question: What about the Kd (HLA-A*02:06; [2]) of the same sequence?
Answer: 50 nM

Question: What about the Kd (HLA-A*30:02; [2]) of the same sequence?
Answer: ≥ 100000 nM

Question: And the Kd (HLA-A*26:01; [2])?
Answer: 18200 nM

Question: And the Kd (HLA-A*29:02; [2])?
Answer: ≥ 36900 nM

Question: What about the Kd (HLA-A*01:01; [2]) of the same sequence?
Answer: ≥ 26300 nM

Question: NTCDGNTFTY was tested. Which Kd (HLA-A*03:01; [2]) did it give?
Answer: 2.25 nM

Question: And the Kd (HLA-A*24:02; [2])?
Answer: 5750 nM

Question: And the Kd (HLA-A*11:01; [2])?
Answer: 23.6 nM

Question: And the Kd (HLA-A*68:01; [2])?
Answer: 1060 nM

Question: What about the Kd (HLA-A*23:01; [2]) of the same sequence?
Answer: 5340 nM

Question: And the Kd (HLA-A*30:02; [2])?
Answer: ≥ 125000 nM

Question: What about the Kd (HLA-A*26:01; [2]) of the same sequence?
Answer: ≥ 77900 nM

Question: And the Kd (HLA-A*29:02; [2])?
Answer: ≥ 26000 nM

Question: And the Kd (HLA-A*01:01; [2])?
Answer: ≥ 89300 nM

Question: What about the Kd (HLA-A*31:01; [2]) of the same sequence?
Answer: 33.4 nM

Question: And the Kd (HLA-A*33:01; [2])?
Answer: 13200 nM

Question: What does the source list for PFVVSTGYHF?
Answer: Kd (HLA-A*24:02; [2]): 67.9 nM; Kd (HLA-A*23:01; [2]): 3.03 nM; Kd (HLA-A*30:02; [2]): 11800 nM; Kd (HLA-A*26:01; [2]): 974 nM; Kd (HLA-A*29:02; [2]): 257 nM; Kd (HLA-A*01:01; [2]): 4890 nM

Question: With PYPDPSRIL as the sequence, how does the Kd (HLA-A*24:02; [2]) read?
Answer: ≥ 83300 nM

Question: What about the Kd (HLA-A*23:01; [2]) of the same sequence?
Answer: 19800 nM

Question: What about the Kd (HLA-A*30:02; [2]) of the same sequence?
Answer: ≥ 75000 nM

Question: And the Kd (HLA-A*26:01; [2])?
Answer: ≥ 77900 nM

Question: And the Kd (HLA-A*29:02; [2])?
Answer: ≥ 35900 nM

Question: And the Kd (HLA-A*01:01; [2])?
Answer: ≥ 78100 nM

Question: How did the Kd (HLA-B*08:01; source organism: Dengue virus 3 Singapore/8120/1995) turn out when QLAKRFSRG was run?
Answer: 1280 nM

Question: With RKLTSRETAL as the sequence, how does the Kd (HLA-B*08:01; source organism: Dengue virus 4 Philippines/H241/1956) read?
Answer: 178 nM

Question: Which results are given for RQEMASRGLW?
Answer: Kd (HLA-A*24:02; [3]): 9010 nM; Kd (HLA-A*23:01; [3]): 1730 nM; Kd (HLA-A*30:02; [3]): 4350 nM; Kd (HLA-A*26:01; [3]): ≥ 69700 nM; Kd (HLA-A*29:02; [3]): 1880 nM; Kd (HLA-A*01:01; [3]): ≥ 70400 nM

Question: Which Kd (HLA-B*08:01; [1]) does the source give for SAEMRLLSI here?
Answer: 20.5 nM

Question: With SLLFKTASG as the sequence, how does the Kd (HLA-B*08:01; source organism: Dengue virus 3 Martinique/1243/1999) read?
Answer: 534 nM

Question: How did the Kd (HLA-B*08:01; source organism: Dengue virus 1 Brazil/97-11/1997) turn out when SLLKNDVPL was run?
Answer: 124 nM

Question: How did the Kd (HLA-B*08:01; [1]) turn out when SMHFYGWSL was run?
Answer: 2.85 nM

Question: And the Kd (HLA-B*15:01)?
Answer: 63 nM

Question: What about the Kd (HLA-A*02:01) of the same sequence?
Answer: 303 nM

Question: How did the Kd (HLA-A*24:03) turn out when TFHLSIPNF was run?
Answer: 34.5 nM

Question: Which Kd (HLA-A*24:02; [4]) does the source give for VFQPSTGNYV here?
Answer: 1530 nM

Question: And the Kd (HLA-A*23:01; [4])?
Answer: 5660 nM

Question: What about the Kd (HLA-A*30:02; [4]) of the same sequence?
Answer: 1010 nM

Question: And the Kd (HLA-A*26:01; [4])?
Answer: ≥ 69700 nM

Question: And the Kd (HLA-A*29:02; [4])?
Answer: ≥ 31600 nM

Question: And the Kd (HLA-A*01:01; [4])?
Answer: ≥ 70400 nM

Question: For VSFQQPQQQY, which Kd (HLA-A*03:01; [5]) is on record?
Answer: ≥ 70100 nM

Question: And the Kd (HLA-A*24:02; [5])?
Answer: ≥ 70300 nM

Question: What about the Kd (HLA-A*11:01; [5]) of the same sequence?
Answer: 1770 nM

Question: What about the Kd (HLA-A*68:01; [5]) of the same sequence?
Answer: ≥ 70200 nM

Question: What about the Kd (HLA-A*23:01; [5]) of the same sequence?
Answer: ≥ 38800 nM

Question: What about the Kd (HLA-A*30:02; [5]) of the same sequence?
Answer: 0.209 nM

Question: And the Kd (HLA-A*26:01; [5])?
Answer: ≥ 26100 nM

Question: And the Kd (HLA-A*29:02; [5])?
Answer: 55.5 nM

Question: And the Kd (HLA-A*31:01; [5])?
Answer: ≥ 70000 nM

Question: And the Kd (HLA-A*33:01; [5])?
Answer: ≥ 70000 nM

Question: Which Kd (HLA-A*24:02; [2]) does the source give for VYDPLQPEL here?
Answer: ≥ 44800 nM

Question: What about the Kd (HLA-A*23:01; [2]) of the same sequence?
Answer: 12800 nM

Question: And the Kd (HLA-A*30:02; [2])?
Answer: 302 nM

Question: What about the Kd (HLA-A*26:01; [2]) of the same sequence?
Answer: ≥ 77900 nM

Question: And the Kd (HLA-A*29:02; [2])?
Answer: 8.42 nM

Question: And the Kd (HLA-A*01:01; [2])?
Answer: ≥ 78100 nM

Question: Which Kd (HLA-B*08:01; source organism: Dengue virus 2 Jamaica/1409/1983) does the source give for WKTWGKAKML here?
Answer: 3800 nM

Question: YYFMKFRRVF was tested. Which Kd (HLA-A*24:02; [2]) did it give?
Answer: 3.92 nM

Question: And the Kd (HLA-A*23:01; [2])?
Answer: 1.51 nM

Question: What about the Kd (HLA-A*30:02; [2]) of the same sequence?
Answer: ≥ 22200 nM

Question: And the Kd (HLA-A*26:01; [2])?
Answer: 1750 nM

Question: What about the Kd (HLA-A*29:02; [2]) of the same sequence?
Answer: 2.8 nM

Question: And the Kd (HLA-A*01:01; [2])?
Answer: 3180 nM
